Results reported in patent publication US20150267232A1, “IN VIVO AND IN VITRO CARBENE INSERTION AND NITRENE TRANSFER REACTIONS CATALYZED BY HEME ENZYMES” (California Institute of Technology, priority 2012, published 2015).
Where “and” joins values, the source holds several entries; their conditions need not be identical. Identical values can stand only once.

B1: ABC-CIS: BM3-CIS + C400S (protein, listed as Bacillus megaterium)
chain: TIKEMPQPKTFGELKNLPLLNTDKPVQALMKIADELGEIFKFEAPGRVTRYLSSQRLIKEACDESRFDKNLSQALKFARDFAGDGLVTSWTHEKNWKKAHNILLPSFSQQAMKGYHAMMVDIAVQLVQKWERLNADEHIEVSEDMTRLTLDTIGLCGFNYRFNSFYRDQPHPFIISMVRALDEVMNKLQRANPDDPAYDENKRQFQEDIKVMNDLVDKIIADRKARGEQSDDLLTQMLNGKDPETGEPLDDGNIRYQIITFLIAGHEATSGLLSFALYFLVKNPHVLQKVAEEAARVLVDPVPSYKQVKQLKYVGMVLNEALRLWPTAPAFSLYAKEDTVLGGEYPLEKGDEVMVLIPQLHRDKTVWGDDVEEFRPERFENPSAIPQHAFKPFGNGQRASIGQQFALHEATLVLGMMLKHFDFEDHTNYELDIKETLTLKPKGFVVKAKSKKIPLGGIPSPSTEQSAKKVRKKAENAHNTPLLVLYGSNMGTAEGTARDLADIAMSKGFAPQVATLDSHAGNLPREGAVLIVTASYNGHPPDNAKQFVDWLDQASADEVKGVRYSVFGCGDKNWATTYQKVPAFIDETLAAKGAENIADRGEADASDDFEGTYEEWREHMWSDVAAYFNLDIENSEDNKSTLSLQFVDSAADMPLAKMHGAFSTNVVASKELQQPGSARSTRHLEIELPKEASYQEGDHLGVIPRNYEGIVNRVTARFGLDASQQIRLEAEEEKLAHLPLAKTVSVEELLQYVELQDPVTRTQLRAMAAKTVCPPHKVELEALLEKQAYKEQVLAKRLTMLELLEKYPACEMKFSEFIALLPSIRPRYYSISSSPRVDEKQASITVSVVSGEAWSGYGEYKGIASNYLAELQEGDTITCFISTPQSEFTLPKDPETPLIMVGPGTGVAPFRGFVQARKQLKEQGQSLGEAHLYFGCRSPHEDYLYQEELENAQSEGIITLHTAFSRMPNQPKTYVQHVMEQDGKKLIELLDQGAHFYICGDGSQMAPAVEATLMKSYADVHQVSEADARLWLQQLEEKGRYAKDVWAG
modifications: cytochrome P450NADPH-P-450 reductase precursor, cytochrome P450 (BM3), CYP102A1
notes: BM3-CIS + C400S
B2: ABC-T268A: P450BM3 variant: T268A, C400S (protein, listed as Bacillus megaterium)
chain: TIKEMPQPKTFGELKNLPLLNTDKPVQALMKIADELGEIFKFEAPGRVTRYLSSQRLIKEACDESRFDKNLSQALKFVRDFAGDGLFTSWTHEKNWKKAHNILLPSFSQQAMKGYHAMMVDIAVQLVQKWERLNADEHIEVPEDMTRLTLDTIGLCGFNYRFNSFYRDQPHPFITSMVRALDEAMNKLQRANPDDPAYDENKRQFQEDIKVMNDLVDKIIADRKASGEQSDDLLTHMLNGKDPETGEPLDDENIRYQIITFLIAGHEATSGLLSFALYFLVKNPHVLQKAAEEAARVLVDPVPSYKQVKQLKYVGMVLNEALRLWPTAPAFSLYAKEDTVLGGEYPLEKGDELMVLIPQLHRDKTIWGDDVEEFRPERFENPSAIPQHAFKPFGNGQRASIGQQFALHEATLVLGMMLKHFDFEDHTNYELDIKETLTLKPEGFVVKAKSKKIPLGGIPSPSTEQSAKKVRKKAENAHNTPLLVLYGSNMGTAEGTARDLADIAMSKGFAPQVATLDSHAGNLPREGAVLIVTASYNGHPPDNAKQFVDWLDQASADEVKGVRYSVFGCGDKNWATTYQKVPAFIDETLAAKGAENIADRGEADASDDFEGTYEEWREHMWSDVAAYFNLDIENSEDNKSTLSLQFVDSAADMPLAKMHGAFSTNVVASKELQQPGSARSTRHLEIELPKEASYQEGDHLGVIPRNYEGIVNRVTARFGLDASQQIRLEAEEEKLAHLPLAKTVSVEELLQYVELQDPVTRTQLRAMAAKTVCPPHKVELEALLEKQAYKEQVLAKRLTMLELLEKYPACEMKFSEFIALLPSIRPRYYSISSSPRVDEKQASITVSVVSGEAWSGYGEYKGIASNYLAELQEGDTITCFISTPQSEFTLPKDPETPLIMVGPGTGVAPFRGFVQARKQLKEQGQSLGEAHLYFGCRSPHEDYLYQEELENAQSEGIITLHTAFSRMPNQPKTYVQHVMEQDGKKLIELLDQGAHFYICGDGSQMAPAVEATLMKSYADVHQVSEADARLWLQQLEEKGRYAKDVWAG
modifications: cytochrome P450NADPH-P-450 reductase precursor, cytochrome P450 (BM3), CYP102A1
notes: P450BM3 variant: T268A, C400S

Assays:
[1] = Whole-cell C—H amination of azide 1; format: cell-based, E. coli BL21(DE3); settings: intact E. coli cells; for Yield sulfonamide (%) / Yield sultam (%): OD600=30, 2 mM azide 1, 24 hours; for Yield sulfonamide (%) / Yield sultam (%) / TTN: anaerobic; for TTN: added glucose; for % ee: (S − R)/(S + R)
Method: Reaction conditions were as follows: 2 mM azide 1, 25 mM glucose, E. coli BL21(DE3) cells in M9-N minimal medium (OD600=30), 2.5% DMSO, oxygen depletion system (100 U ml^−1 glucose oxidase, 1400 U ml^−1 catalase) reacted for 24 hours under anaerobic conditions at 298 K. Yields determined by HPLC quantification.
(§1) Whole cell reactions used E. coli BL21(DE3) cells containing P450 or P411 catalysts, which were expressed and prepared as described elsewhere (Coelho, P. S. et al., Highly efficient carbene transfer to olefins catalyzed in vivo. Submitted (2013)). Following expression, cells were resuspended to an OD600 of 30 in M9 salts lacking NH4Cl (M9-N), and then degassed by sparging with argon in a sealed 6 mL crimp vial for at least 0.5 h. Separately, glucose (250 mM dissolved in 1×M9-N, 40 μL, or multiples thereof) was degassed by sparging with argon for at least five minutes. The oxygen quenching mixture was added to sealed 2 mL crimp vials containing stir bars and the headspace of the vials was purged with argon for five minutes at which time glucose, and then cells were added by syringe. Substrate (80 mM arylsulfonyl azide, 10 uL in DMSO) was added via syringe, and the reactions were stirred at room temperature for 24 h under positive argon pressure.
as §1, with “E.” for “Whole cell reactions used E.”, “catalysts” for “catalysts, which”, “Coelho,” for “(Coelho,”, “μL” for “uL”, “pressure. Reactions were quenched in a manner identical to reactions containing purified enzymes as described above. For chiral HPLC, the reactions were extracted and purified in an identical manner as for reactions that employed purified enzymes. Lyophilized intact cells containing sucrose as a cryoprotectant were prepared as described elsewhere (Coelho, P. S. et al., Highly efficient carbene transfer to olefins catalyzed in vivo. Submitted (2013)). The resulting cell powder, containing expressed ABC-CIS (26 mg) were added along with a stir bar to a 2 mL crimp vial and then sealed. The headspace of the vial was degassed, oxygen quenching system (40 μL) was added via syringe, followed by degassed glucose (250 mM, 40 μL), M9-N (310 μL), and finally substrate (80 mM 1, 10 μL). Lyophilized cell reactions were stirred for 24 h at room temperature, then quenched and analyzed as described above. […]” for “pressure.”
The preparative reaction was scaled up proportionally from small-scale reactions. E. coli BL21 cells containing ABC-CIS (OD600 30, 90 mL in M9-N) were sparged with argon for 45 minutes in a round bottom flask (250 mL) containing a stir bar. Separately, glucose solution (250 mM, 11.6 mL) was sparged with argon in a conical flask. The oxygen quenching mixture (10×, 11.6 mL) was degassed in a conical flask that was placed under high vacuum until slight foaming occurred (1-2 s) and then back-filled with argon; this sequence was repeated several times. Sparged glucose solution was then added to the anaerobic cell suspension via syringe, followed by the oxygen quenching system. Finally, substrate 1 (80 mM, 2.9 mL DMSO) was added dropwise via syringe, and the reaction was stirred for 24 h at room temperature. To quench the reaction, dilute HCl (3 M, 8.7 mL) and acetonitrile (125 mL) were added. […]

[2] = Small-scale anaerobic C—H amination with purified enzymes, azide 4; format: biochemical; settings: 0.1% loading; azide 4
Method: Hemin also was capable of catalyzing this reaction when reduced with dithionite (Table 13).
Small scale reactions containing either 0.1% loading of ABC-CIS or ABC-T268A or 1% loading of hemin with azides 1, 4, or 6 according to standard procedures.
Small-scale reactions (400 μL) were conducted in 2 mL crimp vials (Agilent Technologies, San Diego, Calif.) containing buffer (0.1 M potassium phosphate pH 8.0), enzyme (0.1-0.5% catalyst loading) and oxygen depletion system (10× stock solution containing 14,000 U/mL catalase, 1,000 U/mL glucose oxidase dissolved in 0.1 M KPi pH 8.0). Enzyme (P450 or P411) solution and oxygen depletion mixture were added to the vial with a small stir bar before crimp-sealing. Portions of phosphate buffer (190 μL, 0.1 M, pH=8.0), glucose (40 μL, 250 mM) and NADPH (40 μL, 20 mM), or multiples thereof, were combined in a larger crimp sealed vial and degassed by sparging with argon for at least 5 min. In the meantime, the headspace of the sealed 2 mL reaction vial with the P450 solution was made anaerobic by flushing argon over the protein solution (with no bubbling). The buffer/reductant/glucose solution (270 μL) was syringed into the reaction vial with continuous argon purge of the vial headspace. An arylsulfonyl azide solution in DMSO (10 μL, 80 mM) was added to the reaction vial via a glass syringe, and the reaction was left stirring for 24 h at room temperature under positive argon pressure. Final concentrations of the reagents were typically: 2 mM arylsulfonyl azide, 2 mM NADPH, 25 mM glucose, 2 or 10 μM P450. Reactions were quenched by adding 30 μL 3 M HCl under argon. To the vials were then added acetonitrile (430 uL) and internal standard (o-toluenesulfonamide 10 mM in 50% acetonitrile 50% water, 1 mM final concentration). […] A portion (20 μL) of the supernatant was then analyzed by HPLC. […] Sultam formation was quantified comparison of integrated peak areas of internal standard and sultam at 220 nm to a calibration curve made using synthetically produced sultam and internal standard.

Molecule	Yield sulfonamide (%) [1] [%]	Yield sultam (%) [1] [%]	TTN [1]	% ee [1] [%]	Product (5) [2]
B1	50	46	680	60	26
B2	45	30	245 and 250	89	22
